Substitutions are numbered along the chain they refer to.
T1: human GITR at the cell surface (human, UniProt Q9Y5U5 26-241)
T1 construct: whole, on cells; The cell type is named in the assay field of each row; also called human GITR+ cells; CHO-K1 human GITR+ cells
T1 sequence (looked up): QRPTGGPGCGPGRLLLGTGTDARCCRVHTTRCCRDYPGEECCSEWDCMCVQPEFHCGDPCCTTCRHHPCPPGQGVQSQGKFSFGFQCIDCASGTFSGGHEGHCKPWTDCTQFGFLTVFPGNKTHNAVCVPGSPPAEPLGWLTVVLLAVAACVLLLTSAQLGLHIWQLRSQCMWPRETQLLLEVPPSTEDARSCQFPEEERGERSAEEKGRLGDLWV

T2: hOX40-Fc
T2 construct: Member of the panel m8; not shown: Fc part and any linker
T2 chain: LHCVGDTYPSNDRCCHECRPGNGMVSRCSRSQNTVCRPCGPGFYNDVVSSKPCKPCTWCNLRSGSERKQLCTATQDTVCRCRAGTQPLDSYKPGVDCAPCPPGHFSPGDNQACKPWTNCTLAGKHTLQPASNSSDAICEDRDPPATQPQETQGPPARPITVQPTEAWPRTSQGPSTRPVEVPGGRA

T3: hEpCAM-Fc (human, UniProt P16422)
T3 construct: recombinant Fc fusion; Member of the panel m8
T3 sequence (fusion chain, looked up): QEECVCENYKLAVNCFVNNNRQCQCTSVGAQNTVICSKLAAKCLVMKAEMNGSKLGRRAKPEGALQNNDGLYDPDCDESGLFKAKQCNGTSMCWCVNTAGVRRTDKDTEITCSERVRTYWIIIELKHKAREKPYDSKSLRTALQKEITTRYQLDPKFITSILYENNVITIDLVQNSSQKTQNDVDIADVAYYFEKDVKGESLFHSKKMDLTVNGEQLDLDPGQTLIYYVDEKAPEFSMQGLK

B1: chimeric anti-GITR IgG1 mVH/mVL (6C8 murine v-domains) (antibody, V domains shown)
VH: QVTLKESGPGILKPSQTLSLTCSFSGFSLSTSGMGVGWIRQPSGKGLEWLAHIWWDDDKYYNPSLKSQLTISKDTSRNQVFLKITSVDTADAATYYCARTRRYFPFAYWGQGTLVTVSS
VL: DIVMTQSQKFMSTSVGDRVSVTCKASQNVGTNVAWYQQKPGQSPKALIYSASYRYSGVPDRFTGSGSGTDFTLTINNVHSEDLAEYFCQQYNTDPLTFGAGTKLEIK
notes: Full-length human IgG1, kappa; also called GITR-mVH/mVL; chimeric IgG
B2: D-A6 IgG1 (antibody, V domains shown)
VH: EVQLVESGGGLVQPGGSLRLSCAASGFSLSTSGYGVGWVRQAPGKGLEWLAHIWWDDDKYYVDSVKGRFTISRDNAKNSLYLQMNSLRAEDTAVYYCARTRQYFPFAYWGQGTLVTVSS
VL: EIVLTQSPATLSLSPGERATLSCRASQSVGSNLAWYQQKPGQAPRLLIYSASYRYTGIPARFSGSGSGTDFTLTISSLEPEDFAVYYCQQYSTDPLTFGGGTKVEIK
notes: Human IgG1
B3: I-C2 IgG1 (antibody, V domains shown)
VH: B2 VH with Q102L
VL: B2 VL with S28N, Y53N, T56S
notes: Human IgG1
B4: G-G10 IgG1 (antibody, V domains shown)
VH: B2 VH with S32F
VL: B2 VL with S31T, S50Y, T93N
notes: Human IgG1
B5: VH3/VL2 IgG1 (antibody, V domains shown)
VH: B2 VH with Y34M, Q102R
VL: B2 VL with S28N, S31T, L33V, T56S, S92N
notes: Human IgG1; template of the mutagenesis library; also called G-VH3/VL2; VH3 family

Each binder was assayed against T1, human GITR at the cell surface (assay: flow cytometry, human GITR-transfected murine blastoma cells, 10,000-13.7 ng/ml).
Protocol: (§1) Concentration-dependent binding to GITR at the cell surface was analysed using flow cytometry.

Row | Binder | concentration at maximum MFI
1 | B1 | ~1110 ng/mL
2 | B2 | ~1110 ng/mL
3 | B3 | ~1110 ng/mL
4 | B4 | ~1110 ng/mL
5 | B5 | ~1110 ng/mL

These binders were tested against T4, cynomolgus monkey GITR at the cell surface (cynomolgus monkey) (assay: flow cytometry, cyno GITR-transfected murine blastoma cells, 10,000-13.7 ng/ml).
T4 construct: whole, on cells; also called cyno GITR+ cells
Protocol: as §1

Row | Binder | concentration at maximum MFI
6 | B1 | ~1110 ng/mL
7 | B2 | ~1110 ng/mL
8 | B3 | ~1110 ng/mL
9 | B4 | ~1110 ng/mL
10 | B5 | ~1110 ng/mL

Molecular target: T2, hOX40-Fc
Assay: direct ELISA on coated protein, IgG at 10 µg/ml, OD 450 nm
Protocol: (§2) Off-target homologue binding risk for mVH/mVL (FIG. 8A), VH3/VL2 (FIG. 8B) and lead engineered IgG clones G-G10 (FIG. 8C), I-C2 (FIG. 8D) and D-A6 (FIG. 8E) was examined by direct ELISA on GITR-Fc orthologs and a panel of 13 human TNFRSF and immunoglobulin superfamily proteins (as labelled on each X-axis). Binding to human, cyno and murine GITR-Fcs (h/c/mGITR-Fc) was performed at an IgG concentration of 1 μg/ml. Binding to all other proteins was performed at an IgG concentration of 10 μg/ml.
(§3) Anti-GITR antibodies were tested for polyreactivity by ELISA. Purified, recombinant, target and non-target antigens were coated in 96-well Nunc maxisorp plates at 100 ng per well in carbonate buffer, at 4° C. overnight. Plates were then washed 3× with PBS, blocked with 1% BSA in PBS, then washed 3× with PBS-Tween20. A dilution series of primary antibodies was then applied, plates were washed 3× with PBS-Tween20 followed by application of goat anti-human kappa chain-HRP 1:4,000 secondary antibody. Wells were then washed 3× with PBS-Tween20 and 2× with PBS, 100 μl TMB peroxidase substrate was added per well, the was reaction stopped by adding 100 μl 2M H₂SO₄ and absorbances were read at 450 nm. Anti-GITR antibodies were also tested for binding specificity by flow cytometry. HuT78 cells were activated by incubation with anti-CD3/anti-CD28 beads for 3 days. Naïve cells were incubated in media alone. At the end of the incubation the cells were harvested and the beads removed from the activated cells using a magnet. Cells were incubated with viability dye and then stained with anti-GITR antibodies at 4° C. […] Binding of VH1/VI1 and D-A6 IgG1 proteins were detected by subsequent incubation with a PE labelled goat anti-human IgG. Cells were fixed with 4% PFA before being stored in PBS at 4° C. overnight. Cells were analysed the next day using a BD Fortessa flow cytometer running Diva software. Analysis was performed using FlowJo software.

Row | Binder | binding result
11 | B1 | no binding (tested: 10 µg/ml)
12 | B2 | no binding (tested: 10 µg/ml)
13 | B3 | no binding (tested: 10 µg/ml)
14 | B4 | no binding (tested: 10 µg/ml)
15 | B5 | no binding (tested: 10 µg/ml)

What follows are binders tested against T5, hICAM-1-Fc (human, UniProt P05362) in the same assay as above.
T5 construct: recombinant Fc fusion; Member of the panel m8
Protocol: as §2, §3

T5 sequence (P05362 28-480 limits assumed): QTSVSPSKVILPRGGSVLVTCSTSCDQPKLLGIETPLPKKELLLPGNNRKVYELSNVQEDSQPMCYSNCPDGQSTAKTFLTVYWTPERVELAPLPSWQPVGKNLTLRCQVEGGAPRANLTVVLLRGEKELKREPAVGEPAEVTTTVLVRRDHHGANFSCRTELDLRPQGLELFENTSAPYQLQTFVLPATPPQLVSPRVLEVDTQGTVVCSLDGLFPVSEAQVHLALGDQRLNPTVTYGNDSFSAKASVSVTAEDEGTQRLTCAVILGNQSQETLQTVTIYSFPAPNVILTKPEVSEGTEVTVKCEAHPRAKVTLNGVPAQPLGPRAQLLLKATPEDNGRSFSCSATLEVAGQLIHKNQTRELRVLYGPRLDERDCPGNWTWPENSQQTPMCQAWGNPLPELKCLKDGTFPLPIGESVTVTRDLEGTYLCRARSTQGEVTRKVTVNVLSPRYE

Row | Binder | binding result
16 | B1 | no binding (tested: 10 µg/ml)
17 | B2 | no binding (tested: 10 µg/ml)
18 | B3 | no binding (tested: 10 µg/ml)
19 | B4 | no binding (tested: 10 µg/ml)
20 | B5 | no binding (tested: 10 µg/ml)

What follows are binders tested against T3, hEpCAM-Fc in the same assay as above.
Protocol: as §2, §3

Row | Binder | binding result
21 | B1 | no binding (tested: 10 µg/ml)
22 | B2 | no binding (tested: 10 µg/ml)
23 | B3 | no binding (tested: 10 µg/ml)
24 | B4 | no binding (tested: 10 µg/ml)
25 | B5 | no binding (tested: 10 µg/ml)

The binders below were run against T6, hLTBR-Fc (human, UniProt P36941) in the same assay as above.
T6 construct: recombinant Fc fusion; Member of the panel m8
Protocol: as §2, §3

T6 sequence (P36941 28-227 limits assumed): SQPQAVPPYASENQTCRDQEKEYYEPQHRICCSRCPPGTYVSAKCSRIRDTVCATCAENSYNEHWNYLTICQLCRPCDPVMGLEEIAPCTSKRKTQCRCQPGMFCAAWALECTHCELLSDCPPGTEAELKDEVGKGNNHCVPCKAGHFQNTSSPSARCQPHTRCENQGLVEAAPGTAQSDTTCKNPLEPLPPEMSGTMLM

Row | Binder | binding result
26 | B1 | no binding (tested: 10 µg/ml)
27 | B2 | no binding (tested: 10 µg/ml)
28 | B3 | no binding (tested: 10 µg/ml)
29 | B4 | no binding (tested: 10 µg/ml)
30 | B5 | no binding (tested: 10 µg/ml)

The binders below were run against T7, hCD4 (human, UniProt P01730) in the same assay as above.
T7 construct: purified recombinant protein; Member of the panel m8
Protocol: as §2, §3

Row | Binder | binding result
31 | B1 | no binding (tested: 10 µg/ml)
32 | B2 | no binding (tested: 10 µg/ml)
33 | B3 | no binding (tested: 10 µg/ml)
34 | B4 | no binding (tested: 10 µg/ml)
35 | B5 | no binding (tested: 10 µg/ml)

These binders were tested against T8, h4-1BB-Fc in the same assay as above.
T8 construct: Member of the panel m8; not shown: Fc part and any linker
Protocol: as §2, §3

T8 sequence (chain, as listed by the source limits assumed): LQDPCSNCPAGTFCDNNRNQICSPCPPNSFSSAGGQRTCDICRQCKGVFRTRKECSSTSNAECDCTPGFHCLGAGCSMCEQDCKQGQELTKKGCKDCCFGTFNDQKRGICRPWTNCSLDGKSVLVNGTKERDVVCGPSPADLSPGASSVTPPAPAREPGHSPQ

Row | Binder | binding result
36 | B1 | no binding (tested: 10 µg/ml)
37 | B2 | no binding (tested: 10 µg/ml)
38 | B3 | no binding (tested: 10 µg/ml)
39 | B4 | no binding (tested: 10 µg/ml)
40 | B5 | no binding (tested: 10 µg/ml)

From patent US20190375846A1 (ULTRAHUMAN ONE, published 2019)
